Like-named read-outs stand apart in the source and are kept apart here.
Assays:
[1] = target: nucleocapsid protein (N) 175-365 (UniProt P0DTC9); conditions: sites S188
[2] = target: nucleocapsid protein (N) 175-245 (UniProt P0DTC9); conditions: sites S188
[3] = target: nucleocapsid protein (N) 175-245 (UniProt P0DTC9); conditions: sites S188; remark: listed apart in the source
AUC = target: the molecule itself; assay: AUC

nucleocapsid protein (N) 175-365 (from UniProt P0DTC9)
binding against the reference [1]: same

nucleocapsid protein (N) 175-245 (from UniProt P0DTC9)
binding against the reference [2]: weaker
binding against the reference [3]: weaker

B1: WT-N_(175–245) GFP, GFP-tagged N_(175–245) (domain or fragment)
chain: GSRGGSQASSRSSSRSRNSSRNSTPGSSRGTSPARMAGNGGDAALALLLLDRLNQLESKMSGKGQQQQGQT
Kd (AUC): 77 µM
stoichiometry N (AUC): 2

B2: pSer188-N_(175–245) GFP (domain or fragment)
chain: B1 chain
modifications: phosphoserine at 188
Kd (AUC): 235 µM

From article PMC11180338 (The Journal of Biological Chemistry, 2024)
